B1: Thermus thermophilus RNA polymerase ω subunit (natural protein)
chain: MAEPGIDKLFGMVDSKYRLTVVVAKRAQQLLRHGFKNTVLEPEERPKMQTLEGLFDDPNAVTWAMKELLTGRLVFGENLVPEDRLQKEMERLYPVEREE
notes: RNA polymerase ω subunit, Thermus thermophilus; It stood in the assay as a subunit of the RNAP complex m2; It was cloned in pET-47b, which may add a cleavable N-terminal His tag (surmise); source: E. coli Rosetta2 (DE3), coexpressed and purified as part of RNAP
B2: Thermus thermophilus transcription termination factor Rho (enzyme)
chain: MRRKETLQETPLTYQELASKILPELHLLAQEAGIEGYKRMKKDQLIMALLERQTQGEGLRLVKGYLEISQDGYGFLTENLHNLESRVAIVSAGLIKQYALRAGDYVVGQARPPRENERYATLLKVEAVNNLDPEAAKNRPRFDELTPQFPDRQIRLETTPDELSTRVIDLLAPIGRGQRGLIVAPPKAGKTTLLKKIANAVLKNEPDIKVIVLLIDERPEEVTDFRESVQGAEVIASTFDEPPQNHIRVAEFVHERAKRIVEEGGHVMILLDSITRLARANNLVTPPTGRTLSGGLDSAALYFPKRFLGAARNIRGGGSLTILATALVETGSRMDDVIFEEFKGTGNMELHLSRRLEERRIFPAIDILKSGTRREELLLGEEVTHKMWLLRKVLADMDPAEAMEMLLARLARTKNNKEFLASLAAR
notes: Transcription termination factor Rho, Thermus thermophilus; the C terminus is printed as Arg426; the model leaves out 59 residues at the N terminus; Closed-ring homo-hexamer with ADP·BeF3 at the protomer interfaces; RNA is threaded through the central channel in the RNAP complexes; also called wild-type Rho; Rho hexamer; not shown: His tag, N-terminal, cleaved

Assays:
[1] = target: T1, T. thermophilus Rho (Thermus thermophilus, UniProt Q5SJE9); assay: Rho-dependent RNA release from immobilised RNAP elongation complex, urea-PAGE; format: biochemical; settings: 1 mM ATP, 200 nM Rho, 10 mM MgCl2, pH 7.5, 65 °C; with T. thermophilus RNAP elongation complex
T1 construct: full-length (C terminus Arg426), N-terminal His-tag cleaved by HRV 3C; pET-47b in E. coli Rosetta2 (DE3); closed-ring homohexamer; model lacks 59 N-terminal residues

[2] = target: B2; assay: cryo-EM structure; type 1 class: EC (RNAP with template DNA and 125-nt nascent RNA, gel filtered) mixed with Rho and 0.5 mM ADP·BeF3 in buffer C (20 mM Hepes-NaOH pH 7.5, 250 mM KCl, 5 mM MgCl2, 1% glycerol), cross-linked with 3 mM BS3; nascent RNA threaded into the Rho ring; settings: both partners purified
[3] = target: T2, Thermus thermophilus RNA polymerase lacking the β-flap tip helix (Thermus thermophilus, UniProt Q5SHR6 1-315; Q8RQE9 1-761; Q8RQE9 783-1119; Q8RQE8 1-1524; Q8RQE7 1-99); assay: cryo-EM structure; EC-Rho complex prepared with the β-flap tip-deleted RNAP; 2D class averages of ~3000 particles of the RNAP-Rho complex; settings: both partners purified
T2 construct: RNA polymerase α subunit, Thermus thermophilus; RNA polymerase β subunit, Thermus thermophilus, up to the residue before the deleted β-flap tip helix (β762 to β782 removed); three alanine residues that fill the gap; RNA polymerase β subunit, Thermus thermophilus, from the residue after the deleted β-flap tip helix; RNA polymerase β′ subunit, Thermus thermophilus; RNA polymerase ω subunit, Thermus …

[4] = target: T3, Thermus thermophilus RNA polymerase β subunit (Thermus thermophilus, UniProt Q8RQE9 1-1119); assay: cryo-EM structure; type 1 class: EC (RNAP with template DNA and 125-nt nascent RNA, gel filtered) mixed with Rho and 0.5 mM ADP·BeF3 in buffer C (20 mM Hepes-NaOH pH 7.5, 250 mM KCl, 5 mM MgCl2, 1% glycerol), cross-linked with 3 mM BS3; nascent RNA threaded into the Rho ring; settings: both partners purified
T3 construct: RNA polymerase β subunit, Thermus thermophilus; It stood in the assay as a subunit of the RNAP complex m2; source: E. coli Rosetta2 (DE3), coexpressed and purified as part of RNAP

[5] = target: T4, Thermus thermophilus RNA polymerase β′ subunit (Thermus thermophilus, UniProt Q8RQE8 1-1524); assay: as above; settings: both partners purified
T4 construct: RNA polymerase β′ subunit, Thermus thermophilus; It stood in the assay as a subunit of the RNAP complex m2; source: E. coli Rosetta2 (DE3), coexpressed and purified as part of RNAP

[6] = target: the molecule itself; assay: cryo-EM structure; Rho-only class of the same sample: closed-ring hexamer with ADP·BeF3 between the protomers; C6 symmetry

Molecule: Nc1ncnc2c1ncn2[C@@H]1O[C@H](COP(=O)(O)OP(=O)(O)OP(=O)(O)O)[C@@H](O)[C@H]1O [ATP]
- Rho-dependent RNA release from immobilised RNAP elongation complex, urea-PAGE [1]: The RNA release is ATP dependent, as it did not occur in either the absence

Molecule: B1
- binding result [2]: binds

Molecule: B2
- binding result [3]: binds
- binding result [4]: binds
- binding result [5]: binds
- stoichiometry N [6]: 6
